From the DeepSol protein solubility set

experiment: soluble on expression in E. coli; label from the status in PepcDB or PDB records

Row | Sequence | soluble on expression in E. coli
1 | MGSDKIHHHHHHMGDIQYTVRDDLKLFVNSIMVQQSADGNARFRLPLYADGYPGIMFQQSESGFFRFPESKQLSEFFLYGQTLEPISLEVQGTYRFVVFQLYPFASKYLLGIDPKELNDACYDLMQFQYIDMEVYSKQLTAAPDPESLIACMSDGVAALIGLNKPPHNDRIQQAIKQIIETEGRMRISDLSEAVCLSERTLERNFLGEVGLSPKQFAKIIQFQSSLTKLTDANAETLTAIGLDSGFTDQSHFIRVFKQYTGQTPSQYIKNQTR | not soluble
2 | TLFDKIWDAHVVTTVEDGPTQLYIDRLYCHEVTSPQAFAGLRERGIKVLRPEKVFCMPDHNTPTHDQDKPIEDPISKTQVDTLTKNAKDFGLTHFGMMHPKNGIIHVVGPERALTLPGMTIVCGDSHTSTHGAMGAIAFGIGTSEVEMVLASQCILQSRPKT | not soluble
3 | MGSSHHHHHHSSGLVPRGSHMASMDGKQGGMDGSKPAGPRDFPGIRLLSNPLMGDAVSDWSPMHEAAIHGHQLSLRNLISQGWAVNIITADHVSPLHEACLGGHLSCVKILLKHGAQVNGVTADWHTPLFNACVSGSWDCVNLLLQHGASVQPESDLASPIHEAARRGHVECVNSLIAYGGNIDHKISHLGTPLYLACENQQRACVKKLLESGADVNQGKGQDSPLHAVVRTASEELACLLMDFGADTQAKNAEGKRPVELVPPESPLAQLFLEREGASLPKPKP | soluble
4 | MGHHHHHHSHMAGTALKRLMAVYKQLTLNPPEGIVAGPMNEENFFEWEALIMGPEDTCFEFGVFPAILSFPLDYPLSPPKMRFTCEMFHPNIYPDGRVCISILHAPGDDPHGLREQPERWSPVQSVEKILLSVVSMLAEPNDESGANVDASKMWRDDREQFYKIAKQIVQKSLGL | not soluble
5 | MSLSMKSELRKQVLHEMKAISQEQKQAIDQALTERLLHHPFYQEAKVIATYLSFSHEFQTRELIEQALKDGKKVLIPKTYPKGRMEFVAYDPQQLVKTSFALLEPQGDVEVVDASQIDLIHVPGLAFTTKGYRIGYGGGYYDRYLEHFSGRTLSTIYPCQIQDFIPEEGHHHHHH | not soluble
6 | MGSDKIHHHHHHMSHWFFIINPTAGHRNGLRVWKSIQKELIKRKVEHRSFLTEHPGHAEVLARQISTIQEYKLKRLIVIGGDGTMHEVVNGLKDVDDIELSFVPAGAYNDFSRGFSIKKIDLIQEIKKVKRPLTRTFHLGSVNFLQDKSQILYFMNHIGIGFDAYVNKKAMEFPLRRVFLFLRLRFLVYPLSHLHASATFKPFTLACTTEDETREFHDVWFAVVSNHPFYGGGMKAAPLANPREKTFDIVIVENQPFLKKYWLLCLMAFGKHTKMDGVTMFKAKDITFYTKDKIPFHADGEIMGTTPFRLASSPSPLRIKT | not soluble
7 | MTRGRVIQVMGPVVDVKFENGHLPAIYNALKIQHKARNENEVDIDLTLEVALHLGDDTVRTIAMASTDGLIRGMEVIDTGAPISVPVGQVTLGRVFNVLGEPIDLEGDIPADARRDPIHRPAPKFEELATEVEILETGIKVVDLLAPYIKGGKIGLFGGAGVGKTVLIQELIHNIAQEHGGISVFAGVGERTREGNDLYHEMKDSGVISKTAMVFGQMNEPPGARMRVALTGLTMAEYFRDEQGQDGLLFIDNIFRFTQAGSEVSALLGRMPSAIGYQPTLATEMGQLQERITSTAKGSITSIQAIYVPADDYTDPAPATTFSHLDATTNLERKLAEMGIYPAVDPLVSTSRALAPEIVGEEHYQVARKVQQTLERYKELQDIIAILGMDELSDEDKLVVHRARRIQFFLSQNFHVAEQFTGQPGSYVPVKETVRGFKEILEGKYDHLPEDRFRLVGRIEEVVEKAKAMGVEV | soluble
8 | MGSDKIHHHHHHMTKRAYQYRFYPTPEQAQLLARTFGCVRFVYNAVLRYRTDAFYQRQERIGYVEANAYLTRMKKADETAFLNEVSSVPLQQCLRHQQAAFKHFFEGRARYPAFKNKRHRQAAEFTRSAFKYRNGQLFLAKCKEPLAIRWSRELPSEPTTITISKDSAGRYFVSCLCEFTPETLPVTPRMTGIDLGLKDLFITDQGERIGNPRHTAKYAARLAKAQRRLSKKKLGSANRAKARKRVARLHAKISDCRMDRLHKLSRRLINENQVVCVESLKVKNMLRNPSLAKAIADAGWGEFARQLEYKAQWAGRQLVRIDPWYPSSKRCSDCGHIKDALPLSVRAWDCPACGVTHDRDINAARNIKAAGLAVLALGENVSGMEPVSVSGSR | not soluble
9 | MNDITQLRQNVLEKAHQEGQQCLKIATDSLDTDFKERQQQGLHDLKAKRQKELKALEQQFQVAQQQLKNQERQALLALKQDSIKELFEASLEKMTNFSKEEELAFLKQVLSKYPEQPLQVTFGEKTGQKFSSYDCAELRLAFPQLSYNQELIPQEAGFLVSLDQVDDNYLYRYLLESVLKEESSRIIDMLFSEI | not soluble
10 | MSLTEHALSNARIVLEDDIILGSVLIRDGKIADISEGASKTGEDLEGDFLIPGLVELHTDHLEQHYSPRPGVIWDKIAAIQAHDAQVASSGITTVFDCLRLGSDEDGGFKKGEMREMADAIEAAADQNRLRADHLLHLRCEVASADVLEHFEDFETDPRVRLISLMDHSPGQRQFQSMDQYIFYYQKKRGLSDEAFAEFVRRRQAASAEYSAKHRDYLAASCAKRGITVASHDDATEAHVGEAIGHGVKLAEFPTSVEAAKASHSAGMSVLMGAPNIVRGKSHSGNIAARDLAEIGVLDVLSSDYVPFSLLFAPFLLADQVEAISLSEALRMVTATPARTVGLVDRGRIATGLRADLVRVHREDGVPVARSVWRQGKRVAEGHHHHHH | not soluble
11 | MFSPSKFRKQVNESESVSNCESTTSNSRRILDQHAGLPISSAFRTEASDIGHHFSTKMYFKILSPNNVFALMGDNEFKTSFKIFTIFEPTSTPNGKIQSLITISYKINNVLFKMEKEIFIEKVNIFSLELHIFNFQSTNRSNPASESIHQLDLSSEALVTSTLNIRGNKITTTLRPRTSPYKRAGDASMSREDLRSPDSVSTFTTVLHVFHKVFQVAATYTIRENRSERQTKVKLESLERRLKANEKARKEIEAEAEKWKDRATRNSKRLPELELELAETVQAKEEWQVKSQEMEIQNKQLVEELNEVQKKLEEIENSQKTFHQKVVSTLNLDEEYFQNPDEEQDGSLSQFNMDVLEQEIVKYQEKCISLKQENEILKEKLQQLSSSLTVNQNHVSTLMDHLEINKEQSREIQGICKKEIAIRQDHENRINHDVTLLNSLINEQKMELEMLKAEIRCLRSYSQEMSQSNKNNIILLKSAETERKSLLETLTVLLNSEEEATENNVKRTIRDLVRERDTEQTKRFEAEKAASNAEGVLLEQAKQQRNALFRARVSEEEYSKSMEKIEELEQELLASDLERKNLEHKIASLENCISKVSQLLNVNVGGVFDAIFDRIEELIAQESVYRVVVNENRLISENIFRGLQSVRKDFQSGKSGGGSDKKQPASPVAAAAKIIQERHTLKTIDKMDKLNKDLLATMTIETLKAADIEKTNLKKRMNEQDARIRQLEREKKEGERIRSIIAKWEKRNIPKTEKSSPMKKVPPIENFRAKSQTSITGLSPVL | not soluble
12 | MGSDKIHHHHHHMSKKQFLDQLWARMAQKGDFPTLQYCIDNVFKTLNSDLSVGEMASTVLSDFSLSQKVIRLANSAMYRSFGGEVTTVSRAIMVLGVDTITHLTLGVQVLDFFQGVAPNRPQAARALKQAIMAGEITRALNDARGILGGEEGVVCTLMHHVSRLLVIFYFPDEWDRIMALSADGAMSENDACREVIDISLDDLAKAAAFRWRLPALIADGMLGRELHEETVLETHADWLGAVASLSSDAAASILAEQPEEVVLEPLLTHAQKLGLEPSHVNVAIQQAGTLKASMARSEAPDTGVGSLPDDGGKPADTLTRLQQALAEIRQEGAGMTVSQLAPLVLESAMRALNFSHCFLMLLHPTNKRFGARLGFGEGMRDKLEKLSFEEGFVPDVFHFAMIAPKPLLIEDLRDKAVSHRVPRWYRDAMPDTRSVLLIPVKVRNRCVAMICGDWGATRIAGGLTDGELIAAGDLAGEIATAVLRSAPQR | not soluble
13 | MSLIIYGYCRVSTKNQTDNNSLYQQQQEILNKYNDAKIIKETYTGTTTNRPKFEKIISSLKKGDLLVATKLDRLARSTSEGIQLIEGLFAKEVSVHILNIGLLENTSMGKFFLTTLLAVAELERNMIIERTQLGKEFAKKKKDFKDGRPKKYSNQQIQYALGLLNSKPYREVVKMTGISKSTLIRAKKSIEGHHHHHH | soluble
